# In patent publication US20190169692:
# B1: serine threonine kinase 32C (STK32C) (protein)
# chain: MRSGAERRGSSAAASPGSPPPGRARPAGSDAPSALPPPAAGQPRARDSGDVRSQPRPLFQWSKWKKRMGSSMSAATARRPVFDDKEDVNFDHFQILRAIGKGSFGKVCIVQKRDTEKMYAMKYMNKQQCIERDEVRNVFRELEILQEIEHVFLVNLWYSFQDEEDMFMVVDLLLGGDLRYHLQQNVQFSEDTVRLYICEMALALDYLRGQHIIHRDVKPDNILLDERGHAHLTDFNIATIIKDGERATALAGTKPYMAPEIFHSFVNGGTGYSFEVDWWSVGVMAYELLRGWRPYDIHSSNAVESLVQLFSTVSVQYVPTWSKEMVALLRKLLTVNPEHRLSSLQDVQAAPALAGVLWDHLSEKRVEPGFVPNKGRLHCDPTFELEEMILESRPLHKKKKRLAKNKSRDNSRDSSQSENDYLQDCLDAIQQDFVIFNREKLKRSQDLPREPLPAPESRDAAEPVEDEAERSALPMCGPICPSAGSG
# Target: YB-1 protein, P67809
# Sequence (P67809 whole entry, looked up): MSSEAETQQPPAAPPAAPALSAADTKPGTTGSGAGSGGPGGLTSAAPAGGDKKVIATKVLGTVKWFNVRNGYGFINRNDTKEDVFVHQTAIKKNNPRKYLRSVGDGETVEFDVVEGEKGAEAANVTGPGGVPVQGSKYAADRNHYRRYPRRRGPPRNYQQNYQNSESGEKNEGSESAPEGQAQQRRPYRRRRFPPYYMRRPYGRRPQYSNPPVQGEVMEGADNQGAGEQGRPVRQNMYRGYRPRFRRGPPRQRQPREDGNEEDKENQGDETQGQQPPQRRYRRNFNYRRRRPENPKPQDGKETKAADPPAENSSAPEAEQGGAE
protein,measurement,value
B1,"in vitro kinase assay with P32-labeled ATP (YB-1 with serine 165 / serine 167 mutated to alanine as substrate, STK32C as enzyme source)",it was confirmed that the serine 167 of the YB-1 substrate protein was phosphorylated by SKT32C
